# B1: Hairpin Ribozyme (parent)
# chain: GUCCUCUUUCACGUGCGCGUGAAAGAGAGAAGUGAACCAGAGAAACACACGUUGUGGUAUAUUACCUGGUA
# Variants of: B1
# Experiment: self-cleavage, relative activity (ratio to wild type); higher = more cleavage; co-transcriptional
row,Variant,self-cleavage
1,GUCCUCUUUCACGUGCGCGCGAAUGAGAGAAGUGAACCAGAGAAACACACGUUGUGGUAUAUUACCUGGUA [U20C A24U],0.503
2,GUCCUCUUUCACGUGCGCGAGAAAGAGAGAAGUGAACCAGAGAAACACACGUUGUGGUAUACUACCUGGUA [U20A U62C],0.446
3,GUCCUCUUUCACGUGCGCGAGAAAGAGAGAAGUGAACCAGAGAAACACACGUUGUGGUAUAGUACCUGGUA [U20A U62G],0.195
4,GUCCUCUUUCACGUGCGCGAGAAAGAGAGAAGUGAACCAGAGAAACACACGUUGUGGUAUAUUACCAGGUA [U20A U67A],0.217
5,GUCCUCUUUCACGUGCGCGCGAAAGAGAGAAGUGAACCAGAGAAACACACGUUGUGGUAUAUUACCUGGUC [U20C A71C],1.28
6,GUCCUCUUUCACGUGCGCGCGAAAGAGAGAAGUGAACCAGAGAAACACACGUUGUGGUAUAUUACCUGGUU [U20C A71U],0.79
7,GUCCUCUUUCACGUGCGCGGGAAAGAGAGAAGUGAACCAGAGAAACACACGUUGUGGUAUCUUACCUGGUA [U20G A61C],0.11
8,GUCCUCUUUCACGUGCGCGAGAAAGAGAGAAGUGAACCAGAGAAACACACGUUGUGGUAAAUUACCUGGUA [U20A U60A],0.607
9,GUCCUCUUUCACGUGCGCGCGAAAGAGAGAAGUGGACCAGAGAAACACACGUUGUGGUAUAUUACCUGGUA [U20C A35G],0.71
10,GUCCUCUUUCACGUGCGCGCGAAAGAGAGCAGUGAACCAGAGAAACACACGUUGUGGUAUAUUACCUGGUA [U20C A30C],0.217
11,GUCCUCUUUCACGUGCGCGCGAAAGAGAGAAGUGAACCAGAGAAACACACGUUGUGGUAUAUUACCCGGUA [U20C U67C],0.2
12,GUCCUCUUUCACGUGCGCGCGAAAGAGAGAAGUGAACCAGAGUAACACACGUUGUGGUAUAUUACCUGGUA [U20C A43U],0.125
13,GUCCUCUUUCACGUGCGCGAGAAAGAGAGAAGUGAACCAGAGAAACACACGUUGUGGUAUAUUACCUGGCA [U20A U70C],0.663
14,GUCCUCUUUCACGUGCGCGCGAAAGAGAGAAGUGAACCAGACAAACACACGUUGUGGUAUAUUACCUGGUA [U20C G42C],0.313
15,GUCCUCUUUCACGUGCGCGCGAAAGAGAGAAGUGAACAAGAGAAACACACGUUGUGGUAUAUUACCUGGUA [U20C C38A],0.152
16,GUCCUCUUUCACGUGCGCGGGAAAGAGAGAAGUGAACCCGAGAAACACACGUUGUGGUAUAUUACCUGGUA [U20G A39C],0.461
17,GUCCUCUUUCACGUGCGCGCGAAAGAGAGAAGUGAACCAGAGAAACACACGUUGUGGUAUAUCACCUGGUA [U20C U63C],0.184
18,GUCCUCUUUCACGUGCGCGCGAAAGGGAGAAGUGAACCAGAGAAACACACGUUGUGGUAUAUUACCUGGUA [U20C A26G],1.06
19,GUCCUCUUUCACGUGCGCGGGAAAGAGAGAAGUGAACCAGAGAAGCACACGUUGUGGUAUAUUACCUGGUA [U20G A45G],0.128
20,GUCCUCUUUCACGUGCGCGGGAAAGAGAGUAGUGAACCAGAGAAACACACGUUGUGGUAUAUUACCUGGUA [U20G A30U],0.137
21,GUCCUCUUUCACGUGCGCGGGAAAGAGAGGAGUGAACCAGAGAAACACACGUUGUGGUAUAUUACCUGGUA [U20G A30G],0.148
22,GUCCUCUUUCACGUGCGCGCGAAAGAGAGAAGUGAACCAGAGAAACACAUGUUGUGGUAUAUUACCUGGUA [U20C C50U],0.476
23,GUCCUCUUUCACGUGCGCGCGAAAGAGAGAAGUGAACCAGAGAAACACAGGUUGUGGUAUAUUACCUGGUA [U20C C50G],0.262
24,GUCCUCUUUCACGUGCGCGCGAAAGAGAGAAGUGAACCAGAGAAACACACGUUGUGGUAUAUUACCUGAUA [U20C G69A],0.435
25,GUCCUCUUUCACGUGCGCGCGAAAGAGAGAAGUGAACCAGAGAAACACACGUUGUGGUAUAUUACCUGCUA [U20C G69C],0.239
26,GUCCUCUUUCACGUGCGCGCGAAAGAGAGAAGUGAACCAGAGAAACACACGUUGUGGUAUAUUUCCUGGUA [U20C A64U],0.152

row,Variant,self-cleavage
1,GUCCUCUUUCACGUGCGCGGGAAUGAGAGAAGUGAACCAGAGAAACACACGUUGUGGUAUAUUACCUGGUA [U20G A24U],0.731
2,GUCCUCUUUCACGUGCGCGCGAAAGAGAGAAGUGAACCAGAGAAACACCCGUUGUGGUAUAUUACCUGGUA [U20C A49C],0.172
3,GUCCUCUUUCACGUGCGCGCUAAAGAGAGAAGUGAACCAGAGAAACACACGUUGUGGUAUAUUACCUGGUA [U20C G21U],0.652
4,GUCCUCUUUCACGUGCGCGCAAAAGAGAGAAGUGAACCAGAGAAACACACGUUGUGGUAUAUUACCUGGUA [U20C G21A],0.686
5,GUCCUCUUUCACGUGCGCGGGAAAGAGAGAAGUGAACCAGAGAAACUCACGUUGUGGUAUAUUACCUGGUA [U20G A47U],0.0722
6,GUCCUCUUUCACGUGCGCGGGAAAGAGUGAAGUGAACCAGAGAAACACACGUUGUGGUAUAUUACCUGGUA [U20G A28U],0.643
7,GUCCUCUUUCACGUGCGCGAGAAAGAGAGAAGUGAACCAGAGAAACACACGUUGUGGUAUAUUACCUGCUA [U20A G69C],0.268
8,GUCCUCUUUCACGUGCGCGAGAAAGAGAGAAGUGAACCAGAGAAACACACGUUGUGGUAUAUUACCUGUUA [U20A G69U],0.252
9,GUCCUCUUUCACGUGCGCGCGAAAGAGAGAAGUGAACCAGAGAAAGACACGUUGUGGUAUAUUACCUGGUA [U20C C46G],0.117
10,GUCCUCUUUCACGUGCGCGCGAAAGAGAGAAGUGAACCAGAGAAACACACGUUGUGGUAUAUUAUCUGGUA [U20C C65U],0.284
11,GUCCUCUUUCACGUGCGCGCGAAAGAGAGAAGUGAACCAGAGAAACACACGUUGUGGUAUAUUAACUGGUA [U20C C65A],1
12,GUCCUCUUUCACGUGCGCGCGAAAGAGAGACGUGAACCAGAGAAACACACGUUGUGGUAUAUUACCUGGUA [U20C A31C],0.0231
13,GUCCUCUUUCACGUGCGCGCGAAAGAGAGAGGUGAACCAGAGAAACACACGUUGUGGUAUAUUACCUGGUA [U20C A31G],0.469
14,GUCCUCUUUCACGUGCGCGAGAAAGAGAGAAGUGAACCAGAGAAACACACGUUGUGGGAUAUUACCUGGUA [U20A U58G],0.762
15,GUCCUCUUUCACGUGCGCGAGAAAGAGAGAAGUGAACCAGAGAAACACACGUUGUGGAAUAUUACCUGGUA [U20A U58A],0.709
16,GUCCUCUUUCACGUGCGCGGGAAAGAGAGAAGUGAACCAGAGAAACACUCGUUGUGGUAUAUUACCUGGUA [U20G A49U],0.148
17,GUCCUCUUUCACGUGCGCGCGAAAGAGUGAAGUGAACCAGAGAAACACACGUUGUGGUAUAUUACCUGGUA [U20C A28U],0.393
18,GUCCUCUUUCACGUGCGCGCGAAAGAGCGAAGUGAACCAGAGAAACACACGUUGUGGUAUAUUACCUGGUA [U20C A28C],0.374
19,GUCCUCUUUCACGUGCGCGCGAAAGAGGGAAGUGAACCAGAGAAACACACGUUGUGGUAUAUUACCUGGUA [U20C A28G],1.17
20,GUCCUCUUUCACGUGCGCGCGAAAGAGACAAGUGAACCAGAGAAACACACGUUGUGGUAUAUUACCUGGUA [U20C G29C],0.143
21,GUCCUCUUUCACGUGCGCGCGAAAGAGAGAAGUGAACCUGAGAAACACACGUUGUGGUAUAUUACCUGGUA [U20C A39U],0.315
22,GUCCUCUUUCACGUGCGCGCGAAAGAGAGAAGUGAACCGGAGAAACACACGUUGUGGUAUAUUACCUGGUA [U20C A39G],0.311
23,GUCCUCUUUCACGUGCGCGGGAAAGAGAGACGUGAACCAGAGAAACACACGUUGUGGUAUAUUACCUGGUA [U20G A31C],0.164
24,GUCCUCUUUCACGUGCGCGGGAAAGAGAGAUGUGAACCAGAGAAACACACGUUGUGGUAUAUUACCUGGUA [U20G A31U],0.0664
25,GUCCUCUUUCACGUGCGCGCGAAAGAGAGAAGUGAACCAGAGAAACACACGUUGUGGUAUAUUACCUCGUA [U20C G68C],0.219
26,GUCCUCUUUCACGUGCGCGCGAAAGAGAGAAGUGAACCAGAGAAACACACGUUGUGGUAUAUUACCUUGUA [U20C G68U],0.257

row,Variant,self-cleavage
1,GUCCUCUUUCACGUGCGCGCGAAAGAGAGAAGUGAACCAAAGAAACACACGUUGUGGUAUAUUACCUGGUA [U20C G40A],0.314
2,GUCCUCUUUCACGUGCGCGCGAAAGAGAGAAGUGAACCAUAGAAACACACGUUGUGGUAUAUUACCUGGUA [U20C G40U],0.19
3,GUCCUCUUUCACGUGCGCGCGAAAGAGAGAAGUGAACCAGAGAAGCACACGUUGUGGUAUAUUACCUGGUA [U20C A45G],0.165
4,GUCCUCUUUCACGUGCGCGAGAAAGAGAGAAGUGAACCAGAGAAACACACGUUGUGGUAUAUCACCUGGUA [U20A U63C],0.147
5,GUCCUCUUUCACGUGCGCGGGAAAGAGAGAAGUGAACCAGAGAUACACACGUUGUGGUAUAUUACCUGGUA [U20G A44U],0.0389
6,GUCCUCUUUCACGUGCGCGAGAAAGAGAGAAGUGAACCAGAGAAACACACGUUUUGGUAUAUUACCUGGUA [U20A G54U],0.547
7,GUCCUCUUUCACGUGCGCGCGAAAGAGAGAAGUGAACCAGAGAAACACACGUUGUGGUAAAUUACCUGGUA [U20C U60A],1.15
8,GUCCUCUUUCACGUGCGCGCGAAAGAGAGAAGUGAACCAGAGAAACACACGUUGUGGUACAUUACCUGGUA [U20C U60C],0.724
9,GUCCUCUUUCACGUGCGCGCGAAAGAGAGAAGUGAACCAGAGAAACACACGUUGUCGUAUAUUACCUGGUA [U20C G56C],0.216
10,GUCCUCUUUCACGUGCGCGCGAAAGAGAGAAGUGAACCAGAGAAACACACGUUGUUGUAUAUUACCUGGUA [U20C G56U],0.215
11,GUCCUCUUUCACGUGCGCGCGAAAGAGAGAACUGAACCAGAGAAACACACGUUGUGGUAUAUUACCUGGUA [U20C G32C],0.0574
12,GUCCUCUUUCACGUGCGCGCGAAAGAGAGAAGUGAACCAGAGAAACACACGUGGUGGUAUAUUACCUGGUA [U20C U53G],0.708
13,GUCCUCUUUCACGUGCGCGCGAAAGAGAGAAGUGAACCAGAGAAACACACGUAGUGGUAUAUUACCUGGUA [U20C U53A],0.861
14,GUCCUCUUUCACGUGCGCGCGAAAGAGAGAAGUGAACCAGAGAAACACACGUUGUGGUAUAUUACGUGGUA [U20C C66G],0.152
15,GUCCUCUUUCACGUGCGCGGGAAAGAGAGAAGUGAACCAGAGAAACACACGUUGUGGUCUAUUACCUGGUA [U20G A59C],0.313
16,GUCCUCUUUCACGUGCGCGCGAAAGAGAGAAGUGAGCCAGAGAAACACACGUUGUGGUAUAUUACCUGGUA [U20C A36G],1
17,GUCCUCUUUCACGUGCGCGCGAAAGAGAGAAGUGAACCAGAGAAACACACGUUGGGGUAUAUUACCUGGUA [U20C U55G],0.426
18,GUCCUCUUUCACGUGCGCGCGAAAGAGAGAAGUGAACCAGAGAAACACACGUUGCGGUAUAUUACCUGGUA [U20C U55C],0.159
19,GUCCUCUUUCACGUGCGCGGGCAAGAGAGAAGUGAACCAGAGAAACACACGUUGUGGUAUAUUACCUGGUA [U20G A22C],0.816
20,GUCCUCUUUCACGUGCGCGCGUAAGAGAGAAGUGAACCAGAGAAACACACGUUGUGGUAUAUUACCUGGUA [U20C A22U],0.602
21,GUCCUCUUUCACGUGCGCGCGAAAGAGAGAAGUGAACCAGAGAAACACACGUUGUGGUAUAAUACCUGGUA [U20C U62A],0.202
22,GUCCUCUUUCACGUGCGCGCGAAAGAGAGAAGUGAACCAGAGAAACACACGUUGUGGUAUAGUACCUGGUA [U20C U62G],0.116
23,GUCCUCUUUCACGUGCGCGCGAGAGAGAGAAGUGAACCAGAGAAACACACGUUGUGGUAUAUUACCUGGUA [U20C A23G],1
24,GUCCUCUUUCACGUGCGCGCGAAAGAGAGAAGUGAACCAGAGAAACACACGUUCUGGUAUAUUACCUGGUA [U20C G54C],0.373

# From the RNAGym collection of RNA variant scans (doi:10.7554/elife.80360)
